T1: FcγRIIa type H extracellular domain with C-terminal His tag (human, UniProt P12318 34-217)
T1 construct: extracellular domain; also called FcgRIIa H; FcγRIIa H
T1 sequence (looked up): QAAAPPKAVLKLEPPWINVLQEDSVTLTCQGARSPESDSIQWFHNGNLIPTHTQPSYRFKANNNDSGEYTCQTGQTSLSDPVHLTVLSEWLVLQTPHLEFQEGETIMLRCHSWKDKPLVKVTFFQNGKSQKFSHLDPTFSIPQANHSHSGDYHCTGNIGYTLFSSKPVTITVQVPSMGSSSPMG

T2: FcγRIIb extracellular domain with C-terminal His tag (human, UniProt P31994 43-217)
T2 construct: extracellular domain; also called FcgRIIb
T2 sequence (looked up): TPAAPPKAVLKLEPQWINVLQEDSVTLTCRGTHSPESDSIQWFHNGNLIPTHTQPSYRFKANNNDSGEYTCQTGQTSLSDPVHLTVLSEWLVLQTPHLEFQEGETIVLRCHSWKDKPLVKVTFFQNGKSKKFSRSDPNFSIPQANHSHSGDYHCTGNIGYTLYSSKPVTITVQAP

T3: FcγRIIa type R extracellular domain with C-terminal His tag (human, UniProt P12318 34-217)
T3 construct: extracellular domain; also called FcgRIIa R; FcγRIIa R
T3 sequence (looked up): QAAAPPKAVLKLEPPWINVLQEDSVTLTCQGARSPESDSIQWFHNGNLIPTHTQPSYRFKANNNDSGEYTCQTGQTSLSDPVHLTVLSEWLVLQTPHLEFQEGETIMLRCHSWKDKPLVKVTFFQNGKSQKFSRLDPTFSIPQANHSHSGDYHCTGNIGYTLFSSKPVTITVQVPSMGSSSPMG

B1: GpH7-Kn032/GpH7-Hl032/GpL16-k0 (antibody, human IgG1, kappa)
heavy 1: QVQLVQSGAEVKKPGASVTVSCKASGYTFTDYEMHWIRQPPGEGLEWIGAIDPKTGDTAYSESFQDRVTLTADKSTSTAYMELSSLTSEDTAVYYCTRFYSYTYWGQGTLVTVSSASTKGPSVFPLAPSSKSTSGGTAALGCLVKDYFPEPVTVSWNSGALTSGVHTFPAVLQSSGLYSLSSVVTVPSSSLGTQTYICNVNHKPSNTKVDKKVEPKSCDKTHTCPPCPAPELLGGPDVFLFPPKPKDTLMISRTPEVTCVVVDVSHEDPEVKFNWYVDGVEVHNAKTKPREEQYNSTYRVVSVLTVLHQDWLNGKEYKCKVSNKALPLPEEKTISKAKGQPREPQVCTLPPSRDELTKNQVSLWCLVKGFYPSDIAVEWESNGQPENNYKTTPPVLDSDGSFFLYSKLTVDKSRWQQGNVFSCSVMHEALHNHYTQKSLSLSP
heavy 2: QVQLVQSGAEVKKPGASVTVSCKASGYTFTDYEMHWIRQPPGEGLEWIGAIDPKTGDTAYSESFQDRVTLTADKSTSTAYMELSSLTSEDTAVYYCTRFYSYTYWGQGTLVTVSSASTKGPSVFPLAPSSKSTSGGTAALGCLVKDYFPEPVTVSWNSGALTSGVHTFPAVLQSSGLYSLSSVVTVPSSSLGTQTYICNVNHKPSNTKVDKKVEPKSCDKTHTCPPCPAPELLGGPDVFLFPPKPKDTLMISRTPEVTCVVVDVSHEDPEVKFNWYVDGVEVHNAKTKPREEQYNSTYRVVSVLTVLHQDWLNGKEYKCKVSNKALPLPEEKTISKAKGQPREPQVYTLPPSRCELTKNQVSLSCAVKGFYPSDIAVEWESNGQPENNYKTTPPVLDSDGSFFLVSKLTVDKSRWQQGNVFSCSVMHEALHNHYTQKSLSLSP
light: DIVMTQSPLSLPVTPGEPASISCQASESLVHSNRNTYLHWYLQKPGQSPQLLIYKVSNRFSGVPDRFSGSGSGTDFTLKISRVEAEDVGVYYCSQNTHVPPTFGQGTKVEIERTVAAPSVFIFPPSDEQLKSGTASVVCLLNNFYPREAKVQWKVDNALQSGNSQESVTEQDSKDSTYSLSSTLTLSKADYEKHKVYACEVTHQGLSSPVTKSFNRGEC
notes: also called Kn032/Hl032
B2: GpH7-Kn037/GpH7-Hl036/GpL16-k0 (antibody, human IgG1, kappa)
heavy 1: QVQLVQSGAEVKKPGASVTVSCKASGYTFTDYEMHWIRQPPGEGLEWIGAIDPKTGDTAYSESFQDRVTLTADKSTSTAYMELSSLTSEDTAVYYCTRFYSYTYWGQGTLVTVSSASTKGPSVFPLAPSSKSTSGGTAALGCLVKDYFPEPVTVSWNSGALTSGVHTFPAVLQSSGLYSLSSVVTVPSSSLGTQTYICNVNHKPSNTKVDKKVEPKSCDKTHTCPPCPAPELLAGPDVFLFPPKPKDTLMISRTPEVTCVVVDVSHEDPEVKFNWYVDGVEVHNAKTKPREEQYNSTYRVVSVLTVLHQDWLNGKEYKCKVSNKALPAPEEKTISKAKGQPREPQVCTLPPSRDELTKNQVSLWCLVKGFYPSDIAVEWESNGQPENNYKTTPPVLDSDGSFFLYSKLTVDKSRWQQGNVFSCSVMHEALHNHYTQKSLSLSP
heavy 2: QVQLVQSGAEVKKPGASVTVSCKASGYTFTDYEMHWIRQPPGEGLEWIGAIDPKTGDTAYSESFQDRVTLTADKSTSTAYMELSSLTSEDTAVYYCTRFYSYTYWGQGTLVTVSSASTKGPSVFPLAPSSKSTSGGTAALGCLVKDYFPEPVTVSWNSGALTSGVHTFPAVLQSSGLYSLSSVVTVPSSSLGTQTYICNVNHKPSNTKVDKKVEPKSCDKTHTCPPCPAPELLAGPDVFLFPPKPKDTLMISRTPEVTCVVVDVSHEDPEVKFNWYVDGVEVHNAKTKPREEQYNSTYRVVSVLTVLHQDWLNGKEYKCKVSNKALPAPEEKTISKAKGQPREPQVYTLPPSRCELTKNQVSLSCAVKGFYPSDIAVEWESNGQPENNYKTTPPVLDSDGSFFLVSKLTVDKSRWQQGNVFSCSVMHEALHNHYTQKSLSLSP
light: DIVMTQSPLSLPVTPGEPASISCQASESLVHSNRNTYLHWYLQKPGQSPQLLIYKVSNRFSGVPDRFSGSGSGTDFTLKISRVEAEDVGVYYCSQNTHVPPTFGQGTKVEIERTVAAPSVFIFPPSDEQLKSGTASVVCLLNNFYPREAKVQWKVDNALQSGNSQESVTEQDSKDSTYSLSSTLTLSKADYEKHKVYACEVTHQGLSSPVTKSFNRGEC
notes: also called Kn037/Hl036
B3: GpH7-Kn045/GpH7-Hl048/GpL16-k0 (antibody, human IgG1, kappa)
heavy 1: QVQLVQSGAEVKKPGASVTVSCKASGYTFTDYEMHWIRQPPGEGLEWIGAIDPKTGDTAYSESFQDRVTLTADKSTSTAYMELSSLTSEDTAVYYCTRFYSYTYWGQGTLVTVSSASTKGPSVFPLAPSSKSTSGGTAALGCLVKDYFPEPVTVSWNSGALTSGVHTFPAVLQSSGLYSLSSVVTVPSSSLGTQTYICNVNHKPSNTKVDKKVEPKSCDKTHTCPPCPAPEYYAGPSVFLFPPKPKDTLMISRTPEVTCVVVDVSDEDPEVKFNWYVDGVEVHNAKTKPREEQYNATYRVVSVLTVLHQDWLNGKEYKCKVSNKALPAPIEKTISKAKGQPREPQVCTLPPSRDELTKNQVSLWCLVKGFYPSDIAVEWESNGQPENNYKTTPPVLDSDGSFFLYSKLTVDKSRWQQGNVFSCSVMHEALHNHYTQKSLSLSP
heavy 2: QVQLVQSGAEVKKPGASVTVSCKASGYTFTDYEMHWIRQPPGEGLEWIGAIDPKTGDTAYSESFQDRVTLTADKSTSTAYMELSSLTSEDTAVYYCTRFYSYTYWGQGTLVTVSSASTKGPSVFPLAPSSKSTSGGTAALGCLVKDYFPEPVTVSWNSGALTSGVHTFPAVLQSSGLYSLSSVVTVPSSSLGTQTYICNVNHKPSNTKVDKKVEPKSCDKTHTCPPCPAPELLAGPDVFLFPPKPKDTLMISRTPEVTCVVVDVSHEDPEVKFNWYVDGVEVHNAKTKPREEQYNSTYRVVSVLTVLHQDWLNGKEYKCKVSNKALPKPEEKTISKAKGQPREPQVYTLPPSRCELTKNQVSLSCAVKGFYPSDIAVEWESNGQPENNYKTTPPVLDSDGSFFLVSKLTVDKSRWQQGNVFSCSVMHEALHNHYTQKSLSLSP
light: DIVMTQSPLSLPVTPGEPASISCQASESLVHSNRNTYLHWYLQKPGQSPQLLIYKVSNRFSGVPDRFSGSGSGTDFTLKISRVEAEDVGVYYCSQNTHVPPTFGQGTKVEIERTVAAPSVFIFPPSDEQLKSGTASVVCLLNNFYPREAKVQWKVDNALQSGNSQESVTEQDSKDSTYSLSSTLTLSKADYEKHKVYACEVTHQGLSSPVTKSFNRGEC
notes: Heterodimerized anti-glypican-3 IgG1; also called Kn045/Hl048

Legend:
[1] = target: T1, FcγRIIa type H extracellular domain …; test: SPR (Biacore T100), antibody captured on antigen-peptide chip, FcγR analyte, 1:1 Langmuir fit
Description: (§1) These antibodies were assessed for the binding activity to each FcγR according to the method described in Reference Example 2.
(§2) Analysis of interaction between objective antibody and the FcγR was carried out using Biacore T100 (GE Healthcare). HBS-EP+ (GE Healthcare) was used as the running buffer, and the measurement temperature was set to 25° C. Chips produced by immobilizing the antigen peptide by the amine coupling method to a Series S Sencor Chip CM5 (GE Healthcare), or alternatively, chips produced by allowing preliminarily biotinylated antigen peptides to interact with and immobilize onto a Series S Sensor Chip SA (certified) (GE Healthcare) were used. Antibodies of interest were captured onto an antigen peptide-immobilized chip, and allowed to interact to each FcγR diluted with running buffer. To regenerate and repeatedly use the chip, the antibodies captured on the chip were washed off by reacting 10 mM glycine-HCl, pH 1.5.
(§3) The FcγR-binding activity of each antibody was assessed primarily using as an indicator the FcγR-binding activity and dissociation constant for FcγR.

[2] = target: T2, FcγRIIb extracellular domain with …; test: as above
Description: as §1, §2, §3

[3] = target: T4, FcγRIIIa type V extracellular domain with C-terminal His tag (human, UniProt P08637 17-208); test: as above
T4 construct: extracellular domain; also called FcgRIIIa V; FcγRIIIa V
Description: as §1, §2, §3

[4] = target: T3, FcγRIIa type R extracellular domain …; test: as above
Description: as §1, §2, §3

[5] = target: T5, FcγRIIIa type F extracellular domain with C-terminal His tag (human, UniProt P08637 17-208); test: as above
T5 construct: extracellular domain; also called FcgRIIIa F; FcγRIIIa F
Description: as §1, §2, §3

[6] = target: T6, FcγRIa extracellular domain with C-terminal His tag (human, UniProt P12314 16-292); test: as above
T6 construct: extracellular domain; also called FcgRIa; FcgRI
Description: as §1, §2, §3

[7] = target: T1, FcγRIIa type H extracellular domain …; test: SPR (Biacore T100), ratio of KD values
Description: as §1, §2, §3

[8] = target: T2, FcγRIIb extracellular domain with …; test: SPR (Biacore T100), ratio of KD values
Description: as §1, §2, §3

[9] = target: T4, FcγRIIIa type V extracellular domain …; test: SPR (Biacore T100), ratio of KD values
Description: as §1, §2, §3

[10] = target: T3, FcγRIIa type R extracellular domain …; test: SPR (Biacore T100), ratio of KD values
Description: as §1, §2, §3

[11] = target: T5, FcγRIIIa type F extracellular domain …; test: SPR (Biacore T100), ratio of KD values
Description: as §1, §2, §3

[12] = target: T6, FcγRIa extracellular domain with …; test: SPR (Biacore T100), ratio of KD values
Description: as §1, §2, §3

T5 sequence (P08637 17-208): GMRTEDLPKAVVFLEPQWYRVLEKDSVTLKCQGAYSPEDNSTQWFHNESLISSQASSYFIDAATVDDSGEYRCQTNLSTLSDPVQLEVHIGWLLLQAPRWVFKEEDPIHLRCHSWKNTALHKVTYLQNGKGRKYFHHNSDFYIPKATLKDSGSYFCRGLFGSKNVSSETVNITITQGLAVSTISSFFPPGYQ
T6 sequence (P12314 16-292): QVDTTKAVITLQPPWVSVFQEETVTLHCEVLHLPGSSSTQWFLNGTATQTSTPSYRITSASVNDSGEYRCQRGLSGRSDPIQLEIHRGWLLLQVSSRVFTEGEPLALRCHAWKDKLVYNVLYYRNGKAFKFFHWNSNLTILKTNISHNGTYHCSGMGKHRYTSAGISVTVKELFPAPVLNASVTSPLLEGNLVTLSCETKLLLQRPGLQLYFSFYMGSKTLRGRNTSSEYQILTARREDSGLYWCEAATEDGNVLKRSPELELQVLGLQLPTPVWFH
T4 sequence (P08637 17-208 F176V): as the sequence (P08637 17-208) above, with F160V counted along it

Binder	Kd [1] [nM]	Kd [2] [nM]	Kd [3] [nM]	Kd [4] [nM]	Kd [5] [nM]	Kd [6] [nM]	KD ratio [7]	KD ratio [8]	KD ratio [9]	KD ratio [10]	KD ratio [11]	KD ratio [12]
B1	470	440	1.2	250	4.1	0.0028	1.2 fold (KD of GpH7-Kn033/GpH7-Hl033/GpL16-k0 divided by KD of this antibody)	8.2 fold (KD of GpH7-Kn033/GpH7-Hl033/GpL16-k0 divided by KD of this antibody)	182 fold (KD of GpH7-Kn033/GpH7-Hl033/GpL16-k0 divided by KD of this antibody)	3 fold (KD of GpH7-Kn033/GpH7-Hl033/GpL16-k0 divided by KD of this antibody)	381 fold (KD of GpH7-Kn033/GpH7-Hl033/GpL16-k0 divided by KD of this antibody)	24 fold (KD of GpH7-Kn033/GpH7-Hl033/GpL16-k0 divided by KD of this antibody)
B2	27	230	2.6	17	9.7	0.012	22 fold (KD of GpH7-Kn033/GpH7-Hl033/GpL16-k0 divided by KD of this antibody)	16 fold (KD of GpH7-Kn033/GpH7-Hl033/GpL16-k0 divided by KD of this antibody)	84 fold (KD of GpH7-Kn033/GpH7-Hl033/GpL16-k0 divided by KD of this antibody)	43 fold (KD of GpH7-Kn033/GpH7-Hl033/GpL16-k0 divided by KD of this antibody)	161 fold (KD of GpH7-Kn033/GpH7-Hl033/GpL16-k0 divided by KD of this antibody)	6 fold (KD of GpH7-Kn033/GpH7-Hl033/GpL16-k0 divided by KD of this antibody)
B3	11	110	1.3	4.8	3.7	0.019	52 fold (KD of GpH7-Kn033/GpH7-Hl033/GpL16-k0 divided by KD of this antibody)	34 fold (KD of GpH7-Kn033/GpH7-Hl033/GpL16-k0 divided by KD of this antibody)	170 fold (KD of GpH7-Kn033/GpH7-Hl033/GpL16-k0 divided by KD of this antibody)	154 fold (KD of GpH7-Kn033/GpH7-Hl033/GpL16-k0 divided by KD of this antibody)	419 fold (KD of GpH7-Kn033/GpH7-Hl033/GpL16-k0 divided by KD of this antibody)	3.7 fold (KD of GpH7-Kn033/GpH7-Hl033/GpL16-k0 divided by KD of this antibody)
